From article PMC2117344, “A New In Vitro Strand Transfer Assay for Monitoring Bacterial Class 1 Integron Recombinase IntI1 Activity” come the findings set out here.

The series addresses T1, IntI1(his)6 wild type (Pseudomonas aeruginosa Pa695 (class 1 …, UniProt Q7BP41 1-337)).
T1 sequence: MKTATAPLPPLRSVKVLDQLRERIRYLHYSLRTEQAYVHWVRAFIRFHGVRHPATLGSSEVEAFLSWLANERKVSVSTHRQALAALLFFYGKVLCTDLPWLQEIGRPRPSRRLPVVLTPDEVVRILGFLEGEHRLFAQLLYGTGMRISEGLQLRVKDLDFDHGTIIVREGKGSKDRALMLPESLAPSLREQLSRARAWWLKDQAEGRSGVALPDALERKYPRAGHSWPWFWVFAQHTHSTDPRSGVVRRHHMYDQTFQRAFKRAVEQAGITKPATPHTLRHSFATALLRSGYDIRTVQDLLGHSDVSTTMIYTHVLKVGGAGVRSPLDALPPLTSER
Kind of series: EMSA; 20 min at 4 C in 20 ul, 0.1 pmol DNA, 1-10 pmol IntI1, 1% agarose gel at 4 C; filter wash buffer 20 mM HEPES pH 7.5, 10 mM MnCl2, 30 mM NaCl (pre-wash 10 mM NaCl, 100 ug/ml calf thymus DNA); exact binding buffer not given. The following applies: protein: recombinant, tags: C-terminal His6 (pET101D-Topo), label: 5' 32P.

B1: attC top strand (attCts) (ssDNA)
DNA: CGCCCGTCTAACAATTCGTTCAAGCCGACGTTGCTTCGTGGCGGCGCTTGCGTGCTACGCTAAGCTTCGCACGCCGCTTGCCACTGCGCACCGCGGCTTAACTCAGGCGTTAGATGCACT
On to B1, for which the binding result (single strand) is “no binding”.

B2: attC bottom strand (attCbs) (ssDNA)
DNA: AGTGCATCTAACGCCTGAGTTAAGCCGCGGTGCGCAGTGGCAAGCGGCGTGCGAAGCTTAGCGTAGCACGCAAGCGCCGCCACGAAGCAACGTCGGCTTGAACGAATTGTTAGACGGGCG
In the case of B2, the binding result (single strand) is on record as “binds”.

B3: attI1ds (dsDNA)
DNA 1: ACGCCGTGGGTCGATGTTTGATGTTATGGAGCAGCAACGATGTTACGCAGCAGGGCAGTCGCCCTAAAACAAAGTTAGGTGGCTCAATGAGCATCATTGC
DNA 2: GCAATGATGCTCATTGAGCCACCTAACTTTGTTTTAGGGCGACTGCCCTGCTGCGTAACATCGTTGCTGCTCCATAACATCAAACATCGACCCACGGCGT
B3: the binding result (blunt) was “binds”.
